This passage reports protein production results from a protein production outcome set (Wang et al. 2014).

The nature of the data set: label from the status in PepcDB records.
Take “MLELNAKTTALVVIDLQEGILPFAGGPHTADEVVNRAGKLAAKFRASGQPVFLVRVGWSADYAEALKQPVDAPSPAKVLPENWWQHPAALGATDSDIEIIKRQWGAFYGTDLELQLRRRGIDTIVLCGISTNIGVESTARNAWELGFNLVIAEDACSAASAEQHNNSINHIYPRIARVRSVEEILNAL”: the protein production entry is on record as “not failed”.
Turning to “MEDPLGRLEWIKFLSAFYDKEDKAENYFNQQVSKVMATENKVSSLKKPKVAFGMVDNGKVYIPAKNSYAAKMVDMAGGDYIFKDLNNKSGYITLEDFYSKSKDADVLIYSSSKEYTPSLKSMLSAAPILKTIKPVKNKKVWCFGKDYYQAIDKTDEIIEDLASIFHPESFKGLEHHHHHH”, the protein production result is on record as “failed”.
Regarding “MEPGPEDYLVCAIAKPADKRLVVEKLLGKGARFFTLIHPSVIMGENVVIGQGAVICPSTVLSVDLRIGAFVTLNIGCLVGHDADIGDFSTLSGHCDITGGVVLEEEVFMGTHASVLPNVKVGKQAVVGAGSVAIRNVAAGITVFGVPAKRISGLEHHHHHH”, the protein production entry is “failed”.
In the case of “MDAEGNLFMSWRDGGTFGIARINEQQNIVTPLIEADAANRILYANGLTVDRATGMLTAAHESVKEVTFTFDPREAWYPRQRNIKYSQSDLNSIVDADRYKNFVTFCPYDGYLYTRYRDGKIAKIDPNTFEGHIIHQGPSGSQYGQAINPAKPWLLYITLHSNAPTAYRQGISVLDLRDPDGTGGFKRLNAPGGSAFRDGPIEDALFNYPKDIKFDNDGNMFVADYGNHCIRMISADNIVTTVAGQPGVAGYKDGGPVESLFKNPWGVAVNEQGDIYIADWGNARIRKLVIELEHHHHHH”, the protein production entry is on record as “failed”.
Under “MNKSSATIMAAALMLASSCTEVKQEGQGYEPIIGKQEITIKDGRLTPEALWAMGRIGSLSISPDGKQIAYTVAYYSVPENKSHHVIYVMDADGKNNTLLTQTAWNESEPQWIKGGTKIAFLCNESGGSQIWEMNPDGTERRIISDFKGNIEGFSFSPDGKKILFISQIKYGQRTVDLYPDLPKASGIIVNDLMYKHWDEWVESIPHPFIADFDGNMMGAATDIMEGEPFEAPMKPFGGIEQLAWSNDSKQIAYTSRKKQGLAYAVSTDSDIYLYNIEKGTTLNLCKPNGKDSNGTDEMKGYDTNPKFSPNGKYIAWQSMERDGYESDRNRLCIYNLDDGQKTFVTESFESGVDDYCWNNDSQSLYFVGVWHGTSMVYSANLNGDIKKLTDGMYDYGSVAMAGDKIITKRHSISAADEIYTLTPADGQVAQLSHENDHIFKQLNLGKVEERWTKTTDGKQMLSWVIYPVNFDANKKYPTLLFCEGGPQSPVSQFWSYRWNFQIMAANDYIIIAPNRRGLPGFGMEWLEQISGDYGGQCMKDYLSAIDDISKEPYVDTNRLGCVGASFGGFSVYWLAGHHDKRFKAFIAHDGIFNMEQQYLETEEMWFANWDMGGAYWDKNNATAQRTFANSPHRFVDKWDTPILCIHGEKDYRILASQGMSAFNAAVLRGVPAELLLYPDENHWVLKPQNGVLWQRTFFSWLDKWLK” stands “failed”.
Turning to “MGIKNDLEIRLQKLQQQGNFKNYLEQYPTDASTAAYFLIEIYNDGNIGGRSVIDAGTGNGILACGSYLLGAESVTAFDIDPDAIETAKRNCGGVNFMVADVSEISGKYDTWIMNPPFGSVVKHSDRAFIDKAFETSMWIYSIGNAKARDFLRREFSARGDVFREEKVYITVPRIYRHHSYDRARIEAVIFGVRNHSF”, the protein production entry was “not failed”.
Take “MLLSYVYKLNPSLKQAETMERWLHLLRLQYNFRVRERTEAYEQAKAPVMGNYCILQTQAECCPLTCSVSKGALYGNPWSTKGKKRSPLAQQDANLVDLKKERPWYGEICYHVLQQMLKQVDTAFVRFFKGLGKYPKTKRRGKLRSFTYPTGDVGFKGNKVRLPGLGWMRFFQSRPFPLGFKIRSTTVRKKANGFYISVLLQDDTVPQASASQQIQTALGVDLGIKKLISLSTGETIANPRFYKQMERKRSRLNWAANRKVLGSRRRQKAYQQIAQLEQKVTNQREDYQWKIAHNLVKRFDLIVFENLNVQGMMARCKPKQDESGKYLRNGQSAKSGLNKAIADAAWGSLKLKVKILSERAGVLVHEVKPNFSSQECSECGYISPTNRDKEKFLCEHCGHHADADIDAAKVILKRGLSELGINLDAVSGVPRKQDKSTSKEPVARQGISTALAVEPGNPHQVEERLSN”: the protein production result was “failed”.
